Laboratory results reported in article PMC10325919 (2023).
Starred links: 1 amine or outer side, 2 acyl side, 3 side chain; linkers in the order of their positions; H or OH if unused. Non-standard residues stand in square brackets, D forms with d. No end group written: not given here. Lys(Me3) = C[N+](C)(C)CCCC[C@H](N)C(=O)O; Ethylenediamine = C(CN[*:2])N[*:1]; 5‑FAM = 5-carboxyfluorescein; GABA = NCCCC(=O)O

Biological target: T1, E. coli expressed BAHD1(aa:588–780) (UniProt Q8TBE0 588-780)
T1 chain: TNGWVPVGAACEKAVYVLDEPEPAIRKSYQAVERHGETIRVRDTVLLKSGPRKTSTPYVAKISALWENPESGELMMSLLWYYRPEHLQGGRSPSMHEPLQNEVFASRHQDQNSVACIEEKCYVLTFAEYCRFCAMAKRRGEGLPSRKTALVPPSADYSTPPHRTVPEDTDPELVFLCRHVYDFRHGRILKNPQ
Experiment: FP

B1: H3 16–35 K27me3 peptide (peptide)
peptide: PRKQLATKAAR[Lys(Me3)]SAPATGG-{Ethylenediamine-GABA-5‑FAM}
Kd: 700 nM
